Experimental data from article PMC5499804.

T1: DDX21 m4 (Homo sapiens, UniProt Q9NR30 1-783, P754Y;R755E;Q757I;R758Q)
T1 sequence: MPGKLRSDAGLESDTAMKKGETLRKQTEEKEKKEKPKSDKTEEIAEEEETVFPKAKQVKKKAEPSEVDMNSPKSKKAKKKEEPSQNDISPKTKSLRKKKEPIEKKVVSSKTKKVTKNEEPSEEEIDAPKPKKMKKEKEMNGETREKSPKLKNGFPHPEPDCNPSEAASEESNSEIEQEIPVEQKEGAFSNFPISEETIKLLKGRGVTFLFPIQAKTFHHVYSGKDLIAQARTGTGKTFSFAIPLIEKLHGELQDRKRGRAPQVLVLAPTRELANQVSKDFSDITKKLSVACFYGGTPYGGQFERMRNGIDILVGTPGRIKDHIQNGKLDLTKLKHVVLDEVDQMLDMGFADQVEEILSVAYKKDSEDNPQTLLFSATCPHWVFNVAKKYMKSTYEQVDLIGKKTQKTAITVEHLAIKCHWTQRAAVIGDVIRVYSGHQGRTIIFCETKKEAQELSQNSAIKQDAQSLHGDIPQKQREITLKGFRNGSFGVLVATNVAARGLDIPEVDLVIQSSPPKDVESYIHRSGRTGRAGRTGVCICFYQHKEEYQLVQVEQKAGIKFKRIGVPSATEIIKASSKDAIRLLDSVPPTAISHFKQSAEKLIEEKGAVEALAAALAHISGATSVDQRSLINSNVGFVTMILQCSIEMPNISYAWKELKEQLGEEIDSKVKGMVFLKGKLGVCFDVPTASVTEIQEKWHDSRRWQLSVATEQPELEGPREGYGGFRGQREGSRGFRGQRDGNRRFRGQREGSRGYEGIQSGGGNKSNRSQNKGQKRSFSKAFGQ

T2: DDX21 full length (1-783) (Homo sapiens, UniProt Q9NR30 1-783)
T2 sequence: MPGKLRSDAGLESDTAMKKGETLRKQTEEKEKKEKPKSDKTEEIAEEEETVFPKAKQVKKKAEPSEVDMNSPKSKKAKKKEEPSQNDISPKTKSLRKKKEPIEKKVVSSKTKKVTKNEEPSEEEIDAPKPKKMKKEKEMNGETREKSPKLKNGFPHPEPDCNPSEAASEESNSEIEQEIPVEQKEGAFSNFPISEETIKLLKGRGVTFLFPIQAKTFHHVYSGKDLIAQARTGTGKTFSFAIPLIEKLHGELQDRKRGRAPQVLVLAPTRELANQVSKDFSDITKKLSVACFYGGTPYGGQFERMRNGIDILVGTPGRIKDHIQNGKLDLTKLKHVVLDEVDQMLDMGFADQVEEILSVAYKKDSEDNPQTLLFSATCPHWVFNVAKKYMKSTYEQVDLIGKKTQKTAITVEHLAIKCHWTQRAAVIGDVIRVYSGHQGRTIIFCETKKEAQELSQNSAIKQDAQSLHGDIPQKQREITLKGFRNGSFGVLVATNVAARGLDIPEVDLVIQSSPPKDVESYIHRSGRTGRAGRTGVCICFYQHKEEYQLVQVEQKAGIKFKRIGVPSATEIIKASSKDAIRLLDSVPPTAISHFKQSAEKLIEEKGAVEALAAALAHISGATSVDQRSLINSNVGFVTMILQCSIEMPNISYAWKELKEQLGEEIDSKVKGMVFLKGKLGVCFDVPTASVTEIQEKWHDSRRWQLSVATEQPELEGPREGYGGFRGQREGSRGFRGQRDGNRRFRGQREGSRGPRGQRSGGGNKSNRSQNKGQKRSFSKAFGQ

T3: DDX21(574-783) (Homo sapiens, UniProt Q9NR30 574-783)
T3 sequence: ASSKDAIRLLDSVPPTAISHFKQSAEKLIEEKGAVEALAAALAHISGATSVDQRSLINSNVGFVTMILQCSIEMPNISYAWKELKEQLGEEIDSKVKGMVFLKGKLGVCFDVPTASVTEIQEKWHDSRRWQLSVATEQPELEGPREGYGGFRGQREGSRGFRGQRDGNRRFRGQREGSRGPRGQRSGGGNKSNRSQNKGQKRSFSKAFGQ


Legend:
Experiment in all cases: MST
DDX21 m4 = target: T1, DDX21 m4
[1] = target: T2, DDX21 full length (1-783)
DDX21(574-783) [2] = target: T3, DDX21(574-783)
DDX21(574-783) [3] = target: T3, DDX21(574-783); remark: listed apart in the source

| Binder | binding result (DDX21 m4) | binding result [1] | binding signal (DDX21(574-783) [2]) | Kd [1] [nM] | Kd (DDX21(574-783) [3]) [nM] |
| --- | --- | --- | --- | --- | --- |
| GUUGCGCCGCGCGUUGCGUUUGCGCGCACG (ssRNA) [Q2-mutant] | no binding | no binding | ~1000 fold less affinity than Q2 wild type | – | – |
| GUUGGGGCGGGCGUUGGGUUUGGGGGGACG (structured_RNA) [Q2] | – | – | – | 10 ± 0.7 | – |
| AGGGUGGGCCUGGGAGGGGUGGUGGCCAU (structured_RNA) [hTR(10-43)] | no binding | – | – | 324 ± 7 | 149 ± 10 |
